Experimental data: patent US20090117153A1
Where two headings read alike, the source gives them in different places.

Experiments:
[1] = target: OVA.β2m.Kb SCT Y84A (mouse) (UniProt P01887)
[2] = target: OVA.β2m.Kb SCT Y84A (mouse) (UniProt P01887); remark: listed apart in the source
[3] = target: OVAp5Y.β2m.Kb Y84A SCT (mouse) (UniProt P01887)
[4] = target: native K^b on cells, loaded with endogenous peptides (mouse) (UniProt P01887); experiment: cell-based or functional assay

In the case of SIYR peptide, the IC50 [1] is reported as 1.25 µM, the IC50 [2] is reported as 125 µM and the IC50 [3] is reported as 40 µM.

Substance VSV8 peptide has a VSV8 concentration that activates the N15 hybridoma; LM1.8 cells (FIG. 11C) [4] of 1 nM.
